Measurements as given in US5719021A, “Protein activation” (University of Medicine and Dentistry of New Jersey, dated 1998).
Read-outs that look alike come from different tables or passages of the source.

Assays:
subtilisin E = molecular target: T1, subtilisin E (Bacillus subtilis, UniProt P04189); assay: Competitive inhibition of subtilisin E by synthetic pro-peptides; format: biochemical; conditions: competitive inhibitor
T1 construct: 77 residues for the amino-terminal pro-peptide plus 275 residues for the mature subtilisin; made in house
T1 sequence (P04189 107-381): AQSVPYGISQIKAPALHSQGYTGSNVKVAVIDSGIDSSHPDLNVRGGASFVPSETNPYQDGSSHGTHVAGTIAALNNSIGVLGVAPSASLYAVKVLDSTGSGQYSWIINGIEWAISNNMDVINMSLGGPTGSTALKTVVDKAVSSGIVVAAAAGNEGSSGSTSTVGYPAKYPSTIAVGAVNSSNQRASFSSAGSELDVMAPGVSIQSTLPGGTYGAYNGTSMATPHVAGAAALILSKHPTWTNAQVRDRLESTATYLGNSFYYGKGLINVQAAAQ
Text: 5. The synthetic pro-peptide is able to specifically bind to the active center of subtilisin.

denatured subtilisin E = molecular target: T2, denatured subtilisin E (Bacillus subtilis, UniProt P04189); assay: Renaturation (intermolecular refolding) of denatured subtilisin E with exogenously added pro-peptide; format: biochemical
T2 construct: 77 residues for the amino-terminal pro-peptide plus 275 residues for the mature subtilisin; made in house
T2 sequence (P04189 107-381): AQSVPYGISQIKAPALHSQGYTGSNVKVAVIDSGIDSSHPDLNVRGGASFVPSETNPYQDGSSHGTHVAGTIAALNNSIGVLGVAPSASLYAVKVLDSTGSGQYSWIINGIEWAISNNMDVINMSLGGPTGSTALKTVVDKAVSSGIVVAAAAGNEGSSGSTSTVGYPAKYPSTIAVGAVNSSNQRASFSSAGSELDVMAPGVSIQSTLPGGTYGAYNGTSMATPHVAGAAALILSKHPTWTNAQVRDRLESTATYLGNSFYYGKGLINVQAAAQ
Text: The studies established that denatured subtilisin (without the pro-peptide)cannot be renatured to active subtilisin.
The pro-peptide of 77 residues for subtilisin E (see FIG. 1) was synthesized.
(§1) Other synthetic activating sequences were reacted with a selected polypeptide, in this case subtilisin, as described by Ohta et al. in Molecular Microbiology, 5(6), 1507-1510 (1991), which is incorporated herein by reference (and cofiled herewith). Active subtilisin was obtained.
(§2) The concentration of the activating peptide is preferably in a molar ratio of one of the activating protein to the polypeptide to be activated. At higher and lower concentration than 1 to 1, the renaturation yield was not as high; when the ratio exceeded 1, inhibition was observed. The activating peptide appears to act an inhibitor of the activated polypeptide.
(§3) Different concentrations of the different synthetic peptides were used a shown in the above-cited reference. The mixture of synthetic and polypeptide was dialyzed against 10 mM sodium phosphate, pH 7.0, that also contained 0.5M (NH4)2 SO4, 2 mM CaCl2 and 10 μm of 3,5-bis-trifluoromethylbenzeneboronic acid (BTFBA), a serine protease inhibitor.

pro-subtilisin E = molecular target: T3, pro-subtilisin E (Bacillus subtilis, UniProt P04189); assay: In vitro processing of denatured pro-subtilisin to active subtilisin by dialysis; format: biochemical; conditions: for Processing/conversion to active mature subtilisin: in vitro dialysis, e.g. 0.2M sodium phosphate pH 6.2
T3 construct: Pro-subtilisin consists of 352 amino acid residues; 77 residues for the amino-terminal pro-peptide plus 275 residues for the mature subtilisin; E. coli OmpA signal peptide (N); made in house; host or cells: E. coli (inclusion bodies)
T3 sequence (P04189 30-381 limits assumed): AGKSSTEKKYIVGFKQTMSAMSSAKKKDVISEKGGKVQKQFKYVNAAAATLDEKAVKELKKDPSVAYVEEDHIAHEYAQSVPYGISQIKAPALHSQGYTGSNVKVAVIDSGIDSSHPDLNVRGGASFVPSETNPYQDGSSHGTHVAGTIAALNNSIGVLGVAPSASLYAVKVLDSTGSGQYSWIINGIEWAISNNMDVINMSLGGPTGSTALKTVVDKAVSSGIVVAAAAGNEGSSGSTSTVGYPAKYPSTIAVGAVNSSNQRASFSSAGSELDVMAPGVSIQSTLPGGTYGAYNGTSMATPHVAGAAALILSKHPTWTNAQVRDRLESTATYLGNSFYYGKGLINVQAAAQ
Text: Pro-subtilisin thus produced was solubilized in 6M guanidine-HCl and purified to homogeneity in the presence of 5M urea.
Its N-terminal amino acid sequence and the mobility in SDS-polyacrylamide gel electrophoresis were identical to those of authentic subtilisin.
It is interesting to note that the processing reaction to active subtilisin was independent of the pro-subtilisin concentration. Thus, the conversion is a first-order reaction.
The pro-subtilisin was in solution in a denaturant like guanidine-HCl or urea to prevent autoprocesssing to active subtitisin. For best results, the work was carried out with urea.
The method for activating the polypeptide comprises contacting it with the selected activating peptide. For pro-subtilisin E the efficiency of the conversion to active subtilisin E is independent of the pro-subtilisin concentration, indicating a first order reaction. The reaction is carried out in an appropriate buffer medium. […] At higher concentration, the ammonium sulfate appears to inhibit the proper folding of the polypeptide. When sulfate is used as the anion, there may be used as cations Na^+, K^+, and Li^+ or NH4^+ and equivalent others. Most efficient processing was obtained with 0.5M (NH4)2 SO4 in a 10 mM Tri-HCl buffer (at pH7.0), containing 1 mM CaCl2. Under these conditions, 1 mg of pro-subtilisin produced 89 U of subtilisin activity.

[1] = molecular target: T4, denatured subtilisin BPN' (Bacillus amyloliquefaciens, UniProt P00782); assay: Renaturation of denatured subtilisin BPN' with exogenously added pro-peptide; format: biochemical; conditions: for Efficiency of renaturation of denatured subtilisin BPN' relative to the pro-77-mer: relative to pro-77-mer
T4 sequence (P00782 108-382): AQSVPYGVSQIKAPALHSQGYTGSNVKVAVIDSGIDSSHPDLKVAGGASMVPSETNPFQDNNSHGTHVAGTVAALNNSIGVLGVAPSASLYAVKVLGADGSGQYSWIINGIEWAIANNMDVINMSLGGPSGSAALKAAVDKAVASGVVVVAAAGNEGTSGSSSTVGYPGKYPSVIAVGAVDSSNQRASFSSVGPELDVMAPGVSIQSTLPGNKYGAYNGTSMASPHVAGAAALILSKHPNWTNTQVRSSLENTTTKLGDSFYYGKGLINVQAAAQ
Text: Similarly, pro-peptides corresponding to -1 to -77, -1 to -68 and -1 to -63 for subtilisin BPN' were synthesized (See FIG. 1).
as §1, §2, §3

subtilisin Carlsberg = molecular target: T5, subtilisin Carlsberg (Bacillus licheniformis, UniProt P00780); assay: Renaturation of acid-denatured subtilisin Carlsberg with exogenously added pro-peptide; format: biochemical
T5 construct: denatured subtilisin (without the pro-peptide)cannot be renatured to active subtilisin
Text: This pro-peptide variant was effective even though there are quite a number of amino acid substitutions in both subtilisins BPN' and Carlsberg when compared with subtilisin E (See FIG. 1).

subtilisin BPN' = molecular target: T6, subtilisin BPN' (Bacillus amyloliquefaciens); assay: competitive inhibition of enzyme activity
T6 chain: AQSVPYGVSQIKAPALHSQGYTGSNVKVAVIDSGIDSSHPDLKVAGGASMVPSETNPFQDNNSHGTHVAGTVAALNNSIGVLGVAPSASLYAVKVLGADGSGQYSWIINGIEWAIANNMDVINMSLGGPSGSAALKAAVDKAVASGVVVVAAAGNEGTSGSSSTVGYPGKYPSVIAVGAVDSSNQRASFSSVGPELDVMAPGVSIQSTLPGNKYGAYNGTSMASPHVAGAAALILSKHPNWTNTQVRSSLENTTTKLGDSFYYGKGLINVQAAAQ

[2] = molecular target: T7, subtilisin E (Bacillus subtilis); assay: competitive inhibition of enzyme activity
T7 chain: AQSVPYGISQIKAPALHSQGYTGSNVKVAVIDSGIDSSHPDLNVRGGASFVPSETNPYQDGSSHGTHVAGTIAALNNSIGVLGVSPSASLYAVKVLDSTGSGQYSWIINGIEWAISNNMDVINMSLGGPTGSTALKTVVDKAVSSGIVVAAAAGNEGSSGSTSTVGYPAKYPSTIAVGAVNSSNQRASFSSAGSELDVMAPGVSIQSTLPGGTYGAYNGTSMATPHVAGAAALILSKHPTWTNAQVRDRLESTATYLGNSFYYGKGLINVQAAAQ

For “synthetic pro-peptide of -1 to -77 for subtilisin E: synthesized pro-peptide of 77 residues (-1 to -77) for subtilisin E”, the Ki (subtilisin E; listed as synthetic pro-peptide) was 540 nM, the Ki (subtilisin E; read-out: Ki as competitive inhibitor of subtilisin E) was no more than 540 nM and the “Refolding/renaturation of denatured subtilisin E to active enzyme” value (denatured subtilisin E) was “able to intermolecularly complement the refolding”.

`O=S(=O)(F)Cc1ccccc1` [phenylmethanesulfonyl fluoride, reference compound] was tested, and the “Inhibition of the processing of pro-subtilisin to active subtilisin” value (pro-subtilisin E) was “unable to inhibit”.

B1: pro-subtilisin E: pro-subtilisin produced in E. coli as inclusion bodies, solubilized in 6M guanidine-HCl and purified in 5M urea (protein)
chain: AGKSSTEKKYIVGFKQTMSAMSSAKKKDVISEKGGKVQKQFKYVNAAAATLDEKAVKELKKDPSVAYVEEDHIAHEYAQSVPYGISQIKAPALHSQGYTGSNVKVAVIDSGIDSSHPDLNVRGGASFVPSETNPYQDGSSHGTHVAGTIAALNNSIGVLGVSPSASLYAVKVLDSTGSGQYSWIINGIEWAISNNMDVINMSLGGPTGSTALKTVVDKAVSSGIVVAAAAGNEGSSGSTSTVGYPAKYPSTIAVGAVNSSNQRASFSSAGSELDVMAPGVSIQSTLPGGTYGAYNGTSMATPHVAGAAALILSKHPTWTNAQVRDRLESTATYLGNSFYYGKGLINVQAAAQ
In the case of B1, the “Subtilisin activity produced from 1 mg of pro-subtilisin” value (pro-subtilisin E; 0.5M (NH4)2SO4 in 10 mM Tris-HCl pH 7.0, 1 mM CaCl2) is reported as 89 U, the “Conversion efficiency of pro-subtilisin to active subtilisin” value (pro-subtilisin E; calculated from 89 U versus 470 U) is reported as “approximately 20%” and the “Theoretical maximum activity for 1 mg of pro-subtilisin E” value (pro-subtilisin E; estimated) is reported as 470 U. For the same molecule, the “Processing/conversion to active mature subtilisin” value (“Processing/conversion” below) (pro-subtilisin E) was “converted to active subtilisin”.

B2: pro-subtilisin E with the Asp32 to Asn active site mutation: pro-subtilisin E with active site mutation Asp32 to Asn, used as exogenous pro-peptide source (protein, UniProt P04189 30-381, looked up, variant D32N)
pro-form: AGKSSTEKKYIVGFKQTMSAMSSAKKKDVISEKGGKVQKQFKYVNAAAATLDEKAVKELKKDPSVAYVEEDHIAHEYAQSVPYGISQIKAPALHSQGYTGSNVKVAVINSGIDSSHPDLNVRGGASFVPSETNPYQDGSSHGTHVAGTIAALNNSIGVLGVAPSASLYAVKVLDSTGSGQYSWIINGIEWAISNNMDVINMSLGGPTGSTALKTVVDKAVSSGIVVAAAAGNEGSSGSTSTVGYPAKYPSTIAVGAVNSSNQRASFSSAGSELDVMAPGVSIQSTLPGGTYGAYNGTSMATPHVAGAAALILSKHPTWTNAQVRDRLESTATYLGNSFYYGKGLINVQAAAQ
modifications: pro-form
With B2 the “Renaturation of acid-denatured subtilisin BPN'” value ([1]; acid-denatured) was “able to renature”, the “Refolding/renaturation of denatured subtilisin E to active enzyme” value (denatured subtilisin E) was “active subtilisin is formed” and the “Processing/conversion” value (pro-subtilisin E; listed as pro-subtilisin with an active site mutation (Asp32 to Asn)) was “cannot be autoprocessed”. For the same molecule, the “Processing/conversion” value (pro-subtilisin E; listed as pro-subtilisin with an active-site mutation (aspartic acid at position 32 to asp)) was “unable to be processed” and the “Renaturation of acid-denatured subtilisin Carlsberg” value (subtilisin Carlsberg) was “able to renature”.

B3: pro-68-mer (from -1 to -68) for subtilisin BPN' (peptide)
peptide: YIVGFKQTMSTMSAAKKKDVISEKGGKVQKQFKYVDAASATLNEKAVKELKKDPSVAYVEEDHVAHAY
B3 was tested, and the “Efficiency of renaturation of denatured subtilisin BPN' relative to the pro-77-mer” value [1] was 30-40% and the Ki (subtilisin BPN') was 760 nM.

B4: processed subtilisin: active subtilisin obtained by in vitro processing of pro-subtilisin E (protein, UniProt P04189 107-381, looked up)
Subtilisin E: AQSVPYGISQIKAPALHSQGYTGSNVKVAVIDSGIDSSHPDLNVRGGASFVPSETNPYQDGSSHGTHVAGTIAALNNSIGVLGVAPSASLYAVKVLDSTGSGQYSWIINGIEWAISNNMDVINMSLGGPTGSTALKTVVDKAVSSGIVVAAAAGNEGSSGSTSTVGYPAKYPSTIAVGAVNSSNQRASFSSAGSELDVMAPGVSIQSTLPGGTYGAYNGTSMATPHVAGAAALILSKHPTWTNAQVRDRLESTATYLGNSFYYGKGLINVQAAAQ
In the case of B4, the “Specific activity of processed subtilisin relative to authentic subtilisin E” value (pro-subtilisin E) is reported as “approximately half”.

B5: Streptomyces subtilisin inhibitor: inhibitor tested on processing of pro-subtilisin to active subtilisin (protein)
chain: DAPSALYAPSALVLTVGKGVSATTAAPERAVTLTCAPGPSGTHPAAGSACADLAAVGGDLNALTRGEDVMCPMVYDPVLLTVDGVWQGKRVSYERVFSNECEMNAHGSSVFAF
B5 was tested, and the “Inhibition of the processing of pro-subtilisin to active subtilisin” value (pro-subtilisin E) was “unable to inhibit”.

B6: synthetic pro-peptide of -1 to -77 for subtilisin E (peptide)
peptide: AGKSSTEKKYIVGFKQTMSAMSSAKKKDVISEKGGKVQKQFKYVNAAAATLDEKAVKELKKDPSVAYVEEDHIAHEY
modifications: not checked
Molecule B6 has a Ki [2] of less than 540 nM.

B7: pro-77-mer (from -1 to -77) for subtilisin BPN' (peptide)
peptide: AGKSNGEKKYIVGFKQTMSTMSAAKKKDVISEKGGKVQKQFKYVDAASATLNEKAVKELKKDPSVAYVEEDHVAHAY
With B7 the “Effectiveness for the renaturation of denatured subtilisin BPN'” value [1] was “most effective” and the Ki (subtilisin BPN') was 380 nM.

B8: pro-63-mer (from -1 to -63) for subtilisin BPN' (peptide)
peptide: KQTMSTMSAAKKKDVISEKGGKVQKQFKYVDAASATLNEKAVKELKKDPSVAYVEEDHVAHAY
For B8, the “Efficiency of renaturation of denatured subtilisin BPN' relative to the pro-77-mer” value [1] was 30-40% and the Ki (subtilisin BPN') was 790 nM.
